Assay results from patent publication US20030068806A1.

Assays:
[1] = tested on: T1, p70-bac heparanase (human recombinant heparanase secreted by baculovirus infected insect cells)
T1 sequence: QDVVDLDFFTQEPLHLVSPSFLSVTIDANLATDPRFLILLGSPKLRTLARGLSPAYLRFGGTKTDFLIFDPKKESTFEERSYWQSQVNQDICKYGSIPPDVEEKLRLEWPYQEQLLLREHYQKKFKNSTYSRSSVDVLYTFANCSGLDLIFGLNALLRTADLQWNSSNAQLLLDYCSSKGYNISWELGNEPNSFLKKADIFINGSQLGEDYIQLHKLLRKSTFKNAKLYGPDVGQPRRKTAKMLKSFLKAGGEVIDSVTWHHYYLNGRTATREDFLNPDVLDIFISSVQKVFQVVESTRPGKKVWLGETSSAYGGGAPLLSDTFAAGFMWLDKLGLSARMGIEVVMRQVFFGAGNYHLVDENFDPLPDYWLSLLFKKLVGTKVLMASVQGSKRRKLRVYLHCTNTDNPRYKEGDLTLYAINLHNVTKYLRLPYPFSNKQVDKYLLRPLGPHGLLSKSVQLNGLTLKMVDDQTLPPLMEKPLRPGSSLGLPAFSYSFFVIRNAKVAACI

[2] = tested on: T2, p70 heparanase (about 70 kDa form of recombinant human heparanase expressed in mammalian cells)
T2 sequence: T1 sequence

Substance	heparanase activity (DMB assay) and Western blot before and after cathepsin L [1]	heparanase activity (DMB assay) after trypsin digestion [1]	heparanase activity (DMB assay) after trypsin digestion of CHO conditioned medium [2]
cathepsin L (Cat. No. 219412, Calbiochem)	demonstrates proteolytic processing of p70-bac heparanase by cathepsin L		
trypsin (Cat. No. T-8642, Sigma USA)		reaching maximal activation of five-fold already at 15 units trypsin	recombinant heparanase processing and activation occurred when mild trypsin digestion was employed on a crude conditioned medium of CHO cells that secrete mammalian p70 heparanase (FIG. 27). Activation was dose dependent.
